The values below come from the supplement of paper PMC7125110.

± gives the standard error. Variants at the floor of the assay were thinned out.

B1: glmS ribozyme (parent)
chain: AUAAAAGCGCCAGAACUACAGAAAUGUAGUUGACGAGGAGGAGGUUUAUCGAAUUUUCGGCGGAUGCCUCCAAA

Variants of B1 are the subject of the first data set. As to the kind of experiment: self-cleavage kobs at 2500 uM GlcN6P; higher = faster cleavage; RNA array. Conditions: with glucosamine-6-phosphate. A digest of the protocol:
(§1)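 Over ~14 h at 37 °C, tiles were imaged as glucosamine-6-phosphate (40 μM to 10 mM) in HEPES/KCl/Mg(OAc)2 buffer flowed across sequenced MiSeq chips. The chips carried barcoded ribozyme variants transcribed in situ by E. coli RNA polymerase and tracked with a hybridised Cy3 probe. After normalisation to baseline and to non-cleaving reference variants, one- or two-exponential decay fits of per-tile medians gave kobs. kcat and KM followed from weighted Michaelis–Menten fits across concentrations.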
On to AUAAAAGCGCCAGAAUUACAGAAAUGUAGUUGACGAGGAGGAGGUGUAUCGAAUCUUCGGCGGAUGCCUCCAAA, for which the “self-cleavage kobs at 2500 uM GlcN6P” value came to 0.00261 ± 0.00068 s⁻¹.

Regarding AUAAAAGCGGCAGAACUACAGAAAUGUAGUUGACGAGGAGGUGGUUUAUCGAAUUUUCGGCCGAUGCCUCCAAA, the “self-cleavage kobs at 2500 uM GlcN6P” value was less than 1e-05 s⁻¹.

Turning to AUAAAAGCGCCAGAGCUACAGAAAUGUAGUUCACGAGGAGGAGGUUUAUCGAAUUUUCGGCGGAUGCCUGCAAA, the “self-cleavage kobs at 2500 uM GlcN6P” value is less than 1e-05 s⁻¹.

AUAAAAGCGCCAGAAGUACAGAAAUGUAGUUGACGAGGAGGAGUUUUAUCGAAUUUUCGGCGGAUGCCUACAAA: the “self-cleavage kobs at 2500 uM GlcN6P” value is less than 1e-05 s⁻¹.

As for AUAAAAACGCCAGAACUACAGAAAUGUAGUUGACGAGGAGCAGGUUUAUCGAAUUUUCGGCGGAUGUCUCCAAA, the “self-cleavage kobs at 2500 uM GlcN6P” value was less than 1e-05 s⁻¹.

As for AUAAAAGCGUCAGAACUACAGAAAUGUAGUUGACGAGGAGGACGUUUAUCGAAUUUUCGGUGGAUGCCUUCAAA, the “self-cleavage kobs at 2500 uM GlcN6P” value is less than 1e-05 s⁻¹.

As for AUAAAAGCGCCAGAAUUACAGAAAUGUAGUUGACGAGGAGGAGGUUUAUCGAAUGUUCGGCGGAUGGCUCCAAA, the “self-cleavage kobs at 2500 uM GlcN6P” value worked out at 0.000952 ± 0.00032 s⁻¹.

With AUAAAAGCGCCAGAUCUACAGAAAUGUAGUUGACGAGGAGGAGGUUUAUCCAAUUUUCGGCGGAUGCCUCUAAA, the “self-cleavage kobs at 2500 uM GlcN6P” value is less than 1e-05 s⁻¹.

For AUAAAAGCACCAGAACUACAGAAAUGUAGUUGACGAGGAGGAGGUUUAUCGAAUUUUCGGCUGAUGCCGCCAAA, the “self-cleavage kobs at 2500 uM GlcN6P” value was less than 1e-05 s⁻¹.

As to AUAAAAGCGCCAGAACUACAGAAAUGUAGUUGCCGAGCAGGAGGUUUGUCGAAUUCUCGGCGGAUGCCUCCAAA, the “self-cleavage kobs at 2500 uM GlcN6P” value is less than 1e-05 s⁻¹.

Turning to AUAAAAGCGCCAGAACUACAGAAAUGUCGUUGACGAGGAGGAGGUUUAGCGAAUAUUCGGCGGAUGCCUCCAAA, the “self-cleavage kobs at 2500 uM GlcN6P” value stood at 0.000284 ± 7.5e-05 s⁻¹.

Consider AUAAAGGCACCAGAACUACAGAAAUGUAGUUGACGAGAAGGAGGUUUGUCGAGUUUUCGGCGGAUGCCUCGAAA, for which the “self-cleavage kobs at 2500 uM GlcN6P” value was less than 1e-05 s⁻¹.

For the variant AUAAAAGCGCCAGAACUACAGAAAUGUAGUUGACGAGGACGAGGUUUAUCGAAUUUUCGACGGAUACCUCCAAA, the “self-cleavage kobs at 2500 uM GlcN6P” value is less than 1e-05 s⁻¹.

Take AUAAAAGCGCUAGAACUACAGAAAUGUAGUUGACGAGGAGGGGGUUUAUCGAAUUUUCGGCGGAUGCCUCUAAA: the “self-cleavage kobs at 2500 uM GlcN6P” value turned out to be 0.0013 ± 0.0004 s⁻¹.

AUAAAAGCGCCAGAACUACAGAAAUGUAAUUGACGAUGAGGAGGUUUAUCGAAUUUCCGGCGGAUGCCUCCAAA: the “self-cleavage kobs at 2500 uM GlcN6P” value is less than 1e-05 s⁻¹.

For the variant AUAAAAGCGCCAGGACUACAGAAAUGUAGUUGACGAGGAGGAGGUUUAUCCAAUUUUCGGCCGAAGCGUACAAA, the “self-cleavage kobs at 2500 uM GlcN6P” value was less than 1e-05 s⁻¹.

Turning to AUAAAAGCUCCAGAACUACAGAAAUGUAAUUGACGAGGAGGGGGUUUAUCGAAUUUUCGCCGGAUGCCUCCAAA, the “self-cleavage kobs at 2500 uM GlcN6P” value is less than 1e-05 s⁻¹.

As for AUAAAAGCGCCAGAACUACAGAAAUGUAGUUGACGAGAAGGAGGUUUAUGGAAUUUCCGGCGGAUGCCUCCAAA, the “self-cleavage kobs at 2500 uM GlcN6P” value came to 0.000163 ± 6.6e-05 s⁻¹.

With AUAAAAGCGCCAGAACUACAGAAAUGUAGAUUACGAGGAGGAGGUUUAUAGAAUUUUCGGCGGAUGCCUCCAAA, the “self-cleavage kobs at 2500 uM GlcN6P” value is less than 1e-05 s⁻¹.

Turning to AUAAAUGCGCCAGAACUACAGAAAUGUAAUUGACGAGGAGUAGGUUUAUCGAAUUUUCGGCGGACGCUUCCAAA, the “self-cleavage kobs at 2500 uM GlcN6P” value is less than 1e-05 s⁻¹.

Take AUAAAAGCGCCAGAACUACAGAAAUGUAGUUGACGAGGAGGAGGUUCAUCGGAUUUUCGCCGGAGGACUCCAAA: the “self-cleavage kobs at 2500 uM GlcN6P” value was less than 1e-05 s⁻¹.

AUAAAAGCGCGAGAACUACAGAAAUGUAGUUGACGAGUAGGUAGUUUAUCGAAUUUUCGGCGGAUGCCUCCAAA: the “self-cleavage kobs at 2500 uM GlcN6P” value is less than 1e-05 s⁻¹.

As for AUAAAAGCGCCAGAACUACAGAAAUGUAGUUGACGAGGAGGAGGUUUACCGAAUUGUCGGCGGAUCCCUCCAAA, the “self-cleavage kobs at 2500 uM GlcN6P” value is less than 1e-05 s⁻¹.

On to AUAAAAGCGCCAGAACUACAGAAAUGUAGUCGACGAGGAGGACGUUUAUCGAAUUUUCGGCGGAGGCCUCCAAA, for which the “self-cleavage kobs at 2500 uM GlcN6P” value is less than 1e-05 s⁻¹.

Regarding AUAAAAGCGCCAGUACUACAGAAAUGUAGUUGACGAGGAGGACGUUUAUCGAAUUUUCGGCGGAUGCUUCCAAA, the “self-cleavage kobs at 2500 uM GlcN6P” value was 5.22e-05 ± 1.6e-05 s⁻¹.

Regarding AUAAAAGAGCCAGAACUACAGAAAUGUAGUCGACGAGAAGGAGGUUUAUCGAAUUUUCGGCGGCUGCCUCCAAA, the “self-cleavage kobs at 2500 uM GlcN6P” value was less than 1e-05 s⁻¹.

As for AUAAACGCGCCUGAACUACAGAAAUGUAGUUGACGAGGAGGAGGUUUAUGCAAAUUUCGGCGGAUGCCUCCAAA, the “self-cleavage kobs at 2500 uM GlcN6P” value was less than 1e-05 s⁻¹.

Take AUAAAAGCGAAAGAACUACAGAAAUGUAGUUGACGAGCAGAAGGUUUAUCGAAUUUUCGGCGGAUGCCUCCAAA: the “self-cleavage kobs at 2500 uM GlcN6P” value was less than 1e-05 s⁻¹.

For AUAAAAGCGCUAGAACUACAGAAAUGUAGUUGACGAGGAGGAGGUUUAUCUAAUUUUCGGCGGAUGCCUUCAAA, the “self-cleavage kobs at 2500 uM GlcN6P” value is 6.92e-05 ± 3.4e-05 s⁻¹.

For the variant AUAAAAGCGCCAGAUCUACAGAAAUGUAGUUGACGAGGAGGAGGUUUAGCGAAUUUUCGGCGGAUUCCUCCAAA, the “self-cleavage kobs at 2500 uM GlcN6P” value is less than 1e-05 s⁻¹.

Consider AUAAAAGCGCCAGAACUACAGAAAUGUAUUUGACGAGGAGUAGGUUUAUCGAAUUUUCGGCGGAUGGCUCCAAA, for which the “self-cleavage kobs at 2500 uM GlcN6P” value was less than 1e-05 s⁻¹.

In the case of AUAAAAGCGCCAGGACUACAGAAAUGUAGCUGACGAGGAGGAGGUUAAUCGAAUUUUCGGCGGAUGCCUCCAAA, the “self-cleavage kobs at 2500 uM GlcN6P” value was found to be 0.000323 ± 8.4e-05 s⁻¹.

For AUAAAAGCGCCAGUACUACAGAAAUGUAUUUCACGAGGAGGAGGUUUAUCGAAUUCUCGGCGGAUGCAUUCAAA, the “self-cleavage kobs at 2500 uM GlcN6P” value is less than 1e-05 s⁻¹.

Regarding AUAAAAGUGCCAGAACUACAGAAAUGUAGUUGAGGAGGAGGAGGUUUAUCGAAUUUUCGGCGGAUGCCGCCAAA, the “self-cleavage kobs at 2500 uM GlcN6P” value came to 8.61e-05 ± 2.2e-05 s⁻¹.

AUAAAAGCGUCAGAACUACAGAAAUGUAUUUGGCGAGGCGGAGGUUUAUCGAAUGUUCGGCGGAUGCCUGCAAA: the “self-cleavage kobs at 2500 uM GlcN6P” value was less than 1e-05 s⁻¹.

As to AUAAAAGCGCCCGAACUACAGAAAUGUAGUUGACGGGGAUGAUGUUUAUCGAAGUUUCGGCGGAUGCCUCCAAA, the “self-cleavage kobs at 2500 uM GlcN6P” value is less than 1e-05 s⁻¹.

Another data set covers variants of B1. Kind of data set: self-cleavage kobs at 10000 uM GlcN6P; higher = faster cleavage; RNA array. The following applies: with glucosamine-6-phosphate. An outline of the steps:
as §1
With AUAAAAGCGCCAGGACUACAGAAAUGUAGCUGACGAGGAGGAGGUUAAUCGAAUUUUCGGCGGAUGCCUCCAAA, the “self-cleavage kobs at 10000 uM GlcN6P” value is 0.000556 ± 8e-05 s⁻¹.
